# Assay results as given in the Immune Epitope Database (IEDB).
# pIC50, pKd: −log10 of the molar value.
# What was measured:
# HLA-A*31:01 = assay: IEDB peptide-MHC binding, purified MHC/competitive/fluorescence; filed as Kd, often an IC50 or EC50 that approximates it; ≥ and ≤ were set here for values at or beyond the usual limits of such assays
# HLA-A*11:01 [1] = assay: IEDB peptide-MHC binding, purified MHC/direct/fluorescence; filed as Kd, often an IC50 or EC50 that approximates it; ≥ and ≤ were set here for values at or beyond the usual limits of such assays
# HLA-A*03:01 [2] = assay: as above
# HLA-A*11:01 [3] = assay: IEDB peptide-MHC binding, purified MHC/competitive/fluorescence; ≥ and ≤ were set here for values at or beyond the usual limits of such assays
# HLA-B*51:01 = assay: IEDB peptide-MHC binding, purified MHC/competitive/fluorescence; filed as Kd, often an IC50 or EC50 that approximates it; ≥ and ≤ were set here for values at or beyond the usual limits of such assays
# HLA-B*39:01 = assay: as above
# HLA-B*57:01 = assay: as above
# HLA-A*69:01 = assay: as above
# HLA-B*46:01 = assay: as above
# HLA-B*18:01 = assay: as above
# HLA-B*27:03 = assay: as above
# HLA-B*15:17 = assay: as above
# HLA-B*15:01 = assay: as above; details: source organism: Homo sapiens
# HLA-A*26:01 = assay: as above
# HLA-A*02:01 [4] = assay: IEDB peptide-MHC binding, purified MHC/direct/fluorescence; filed as Kd, often an IC50 or EC50 that approximates it; ≥ and ≤ were set here for values at or beyond the usual limits of such assays; details: source organism: Tetraodon nigroviridis
# HLA-A*03:01 [5] = assay: IEDB peptide-MHC binding, purified MHC/competitive/fluorescence; filed as Kd, often an IC50 or EC50 that approximates it; ≥ and ≤ were set here for values at or beyond the usual limits of such assays
# HLA-A*02:01 [6] = assay: IEDB peptide-MHC binding, purified MHC/competitive/fluorescence; ≥ and ≤ were set here for values at or beyond the usual limits of such assays; details: source organism: Sudan ebolavirus
# HLA-A*24:02 = assay: as above; details: source organism: Sudan ebolavirus
# HLA-A*02:01 [7] = assay: IEDB peptide-MHC binding, purified MHC/competitive/fluorescence; filed as Kd, often an IC50 or EC50 that approximates it; ≥ and ≤ were set here for values at or beyond the usual limits of such assays; details: source organism: Escherichia coli 536
# HLA-A*68:01 = assay: IEDB peptide-MHC binding, purified MHC/competitive/radioactivity; filed as Kd, often an IC50 or EC50 that approximates it; ≥ and ≤ were set here for values at or beyond the usual limits of such assays; details: source organism: Dengue virus 2 Jamaica/1409/1983
# HLA-B*15:42 = assay: IEDB peptide-MHC binding, purified MHC/competitive/fluorescence; filed as Kd, often an IC50 or EC50 that approximates it; ≥ and ≤ were set here for values at or beyond the usual limits of such assays
# HLA-B*45:06 = assay: as above
# HLA-B*83:01 = assay: as above; details: source organism: human gammaherpesvirus 4
# HLA-A*02:17 = assay: IEDB peptide-MHC binding, purified MHC/competitive/radioactivity; filed as Kd, often an IC50 or EC50 that approximates it; ≥ and ≤ were set here for values at or beyond the usual limits of such assays
# HLA-A*02:01 [8] = assay: as above
# HLA-A*02:06 = assay: as above
# HLA-A*68:02 = assay: as above
# HLA-B*15:09 = assay: IEDB peptide-MHC binding, purified MHC/direct/fluorescence; filed as Kd, often an IC50 or EC50 that approximates it; ≥ and ≤ were set here for values at or beyond the usual limits of such assays; details: source organism: Burkholderia mallei ATCC 23344
# HLA-A*02:03 = assay: IEDB peptide-MHC binding, purified MHC/competitive/radioactivity; filed as Kd, often an IC50 or EC50 that approximates it; ≥ and ≤ were set here for values at or beyond the usual limits of such assays; details: source organism: Dengue virus 2 Jamaica/1409/1983
# [9] = source organism: West Nile virus
# [10] = source organism: Influenza A virus (A/Viet Nam/HN/2004(H5N1))
# [11] = source organism: Coxiella burnetii
# [12] = source organism: Sudan ebolavirus
# [13] = source organism: Bacillus cereus G9241
# [14] = source organism: Escherichia coli 536
# [15] = source organism: Yersinia pestis FV-1
# [16] = source organism: Yersinia pestis
# [17] = source organism: human gammaherpesvirus 4
# [18] = source organism: Dengue virus 4 Dominica/814669/1981
# [19] = source organism: Influenza A virus (A/Memphis/1/1978(H1N1))
# [20] = source organism: Dengue virus 2 Jamaica/1409/1983
# [21] = source organism: Dengue virus 3 China/80-2/1980
# [22] = source organism: Dengue virus 3 Singapore/8120/1995
sequence,measurement,setting,value
VLRKRWTAK,pKd,HLA-A*31:01; [9],7.23
same,pKd,HLA-A*11:01 [1]; [9],≤ 4.70
GTFGPVHFR,pKd,HLA-A*31:01; source organism: Influenza A virus H3N2,≥ 9.00
same,pKd,HLA-A*11:01 [1]; [10],8.80
same,pKd,HLA-A*03:01 [2]; [10],7.59
SQIRRFNLR,pKd,HLA-A*31:01; source organism: Pseudomonas putida F1,8.99
same,pKd,HLA-A*11:01 [1]; [11],7.87
same,pKd,HLA-A*03:01 [2]; [11],5.91
SATKRWGFR,pIC50,HLA-A*11:01 [3]; [12],≤ 3.93
FMDPGIFPR,pKd,HLA-B*51:01; source organism: Homo sapiens,≤ 4.70
same,pKd,HLA-B*39:01; source organism: Homo sapiens,≤ 4.70
same,pKd,HLA-B*57:01; source organism: Homo sapiens,≤ 4.70
same,pKd,HLA-A*69:01; source organism: Homo sapiens,≤ 4.70
same,pKd,HLA-B*46:01; source organism: Homo sapiens,≤ 4.70
same,pKd,HLA-B*18:01; source organism: Homo sapiens,≤ 4.70
same,pKd,HLA-B*27:03; source organism: Homo sapiens,≤ 4.70
same,pKd,HLA-B*15:17; source organism: Homo sapiens,≤ 4.70
same,pKd,HLA-B*15:01,≤ 4.70
same,pKd,HLA-A*26:01; source organism: Homo sapiens,≤ 4.70
same,pKd,HLA-A*02:01 [4],8.00
MLYDRINLR,pKd,HLA-A*31:01; [13],8.47
same,pKd,HLA-A*03:01 [5]; [13],7.97
AIDFLLRRW,pIC50,HLA-A*02:01 [6],4.26
same,pIC50,HLA-A*11:01 [3]; [12],≤ 3.81
same,pIC50,HLA-A*24:02,4.41
RAMDVYCHR,pKd,HLA-B*51:01; [14],≤ 4.70
same,pKd,HLA-B*39:01; [14],≤ 4.70
same,pKd,HLA-B*57:01; [14],≤ 4.70
same,pKd,HLA-A*69:01; [14],≤ 4.70
same,pKd,HLA-B*46:01; [14],≤ 4.70
same,pKd,HLA-B*18:01; [14],≤ 4.70
same,pKd,HLA-A*02:01 [7],≤ 4.70
same,pKd,HLA-B*27:03; [14],≤ 4.70
same,pKd,HLA-B*15:17; [14],≤ 4.70
same,pKd,HLA-A*26:01; [14],≤ 4.70
TVNPIVTEK,pKd,HLA-A*68:01,7.58
same,pKd,HLA-A*31:01; source organism: dengue virus type 2,4.84
same,pKd,HLA-A*11:01 [1]; source organism: Dengue virus,8.64
SVQWFRLPR,pKd,HLA-B*15:42; [15],≤ 5.30
same,pKd,HLA-B*45:06; [15],≤ 5.30
same,pKd,HLA-A*31:01; [15],≥ 10.00
same,pKd,HLA-A*11:01 [1]; [16],≥ 9.00
same,pKd,HLA-A*03:01 [2]; [16],6.24
SQAAFGLPI,pKd,HLA-B*83:01,≤ 5.30
same,pKd,HLA-B*15:42; [17],≤ 5.30
same,pKd,HLA-B*45:06; [17],6.22
LSMGLITIAV,pKd,HLA-A*02:17; [18],5.62
same,pKd,HLA-A*02:01 [8]; [18],7.10
same,pKd,HLA-A*02:06; [18],7.52
same,pKd,HLA-A*68:02; [18],7.10
GEELPTVVL,pKd,HLA-B*15:09,≤ 4.70
RLFKHGLKR,pKd,HLA-A*31:01; [19],7.84
same,pKd,HLA-A*03:01 [5]; [19],8.10
FGGFSTLDK,pIC50,HLA-A*11:01 [3]; source organism: Variola virus,≤ 4.11
LVISGVFPV,pKd,HLA-A*02:17; [20],8.71
same,pKd,HLA-A*02:01 [8]; [20],7.53
same,pKd,HLA-A*02:03,7.85
same,pKd,HLA-A*02:06; [20],8.78
same,pKd,HLA-A*68:02; [20],9.43
TTPMMIQTR,pIC50,HLA-A*11:01 [3]; source organism: Vaccinia virus,4.34
ISKSMRDQR,pIC50,HLA-A*11:01 [3]; source organism: Variola virus,4.63
FVGKTVWFV,pKd,HLA-A*02:17; [21],7.54
same,pKd,HLA-A*02:01 [8]; [21],8.33
same,pKd,HLA-A*02:06; [22],8.06
same,pKd,HLA-A*68:02; [22],8.73
